Measurements published in patent publication US20110293599A1 (EWHA UNIVERSITY INDUSTRY COLLABORATION FOUNDATION, published 2011).

T1: Myc-tagged MyoD, full length 318 aa (FL) (UniProt P10085 1-318)
T1 construct: Overexpressed in 293T cells; also called MyoD FL; not shown: Myc tag from the pCMV-Myc vector
T1 sequence (looked up): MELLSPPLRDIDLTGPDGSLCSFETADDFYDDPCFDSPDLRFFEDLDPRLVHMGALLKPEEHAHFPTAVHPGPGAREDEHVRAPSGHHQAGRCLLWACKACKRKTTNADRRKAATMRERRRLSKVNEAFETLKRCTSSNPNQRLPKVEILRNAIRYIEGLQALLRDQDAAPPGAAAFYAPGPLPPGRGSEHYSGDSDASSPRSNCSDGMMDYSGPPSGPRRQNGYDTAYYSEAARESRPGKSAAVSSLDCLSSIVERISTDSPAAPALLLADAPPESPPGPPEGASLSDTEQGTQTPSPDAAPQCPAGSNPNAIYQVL


Assays:
[1] = target: T2, Flag-tagged TAZ (transcriptional coactivator with PDZ-binding motif), full length (1-395 aa) (Mus musculus (Mouse), UniProt Q9EPK5 1-395); assay: co-immunoprecipitation from 293T cells, Flag-M2 beads, immunoblot
T2 construct: also called TAZ FL; Flag-TAZ; not shown: Flag tag

[2] = target: T1, Myc-tagged MyoD, full length 318 aa (FL); assay: co-immunoprecipitation from 293T cells, Flag-M2 beads, MyoD immunoblot

| Binder | binding result [1] | binding result [2] |
| --- | --- | --- |
| NT MyoD (MyoD aa 1-102), Myc-tagged (other, UniProt P10085 1-102, looked up, Coexpressed with Flag-TAZ in 293T cells; not shown: Myc tag from the pCMV-Myc vector) MELLSPPLRDIDLTGPDGSLCSFETADDFYDDPCFDSPDLRFFEDLDPRLVHMGALLKPEEHAHFPTAVHPGPGAREDEHVRAPSGHHQAGRCLLWACKACK | no binding |  |
| TAZ truncation ΔN2 (aa 164-395 TAZ), lacking the WW domain (other, Cotransfected with MyoD into 293T cells; not shown: Flag tag, implied by the precipitation with Flag-M2 beads) NHVNLHPSITSTSVPQRSMAVSQPNLAMNHQHQQVVATSLSPQNHPTQNQPTGLMSVPNALTTQQQQQQKLRLQRIQMERERIRMRQEELMRQEAALCRQLPMETETMAPVNTPAMSTDMRSVTNSSSDPFLNGGPYHSREQSTDSGLGLGCYSVPTTPEDFLSNMDEMDTGENSGQTPMTVNPQQTRFPDFLDCLPGTNVDLGTLESEDLIPLFNDVESALNKSEPFLTWL |  | no binding |
